# The supplement of paper PMC10567573
# ± gives the standard deviation.
# Assay: protein stability index of a GFP-peptide fusion (GPS, HEK-293T) (PSI 1-6); higher = more stable
# Conditions: c terminus: a fixed tail appended
# 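Note: 24-mer peptide tiles fused after GFP, lentivirally expressed, FACS-sorted into six equal bins by GFP/DsRed ratio, decoded by Illumina sequencing, PSI is the read-weighted mean bin number.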
Sequence,protein stability index (treatment: DMSO),"protein stability index (treatment: MLN4924 1 uM, 8 h)"
LNGDYGENIYPYEEDKDEKSSIYE [MIA2],3.78 ± 0.7,3.94 ± 0.72
LNKLYPTHACREYLKNLPLLSKYC [TPH1],2.41 ± 0.45,2.23 ± 0.46
LPEKACQLDSRYWRITNAKGDVEE [FBXO3],4.47 ± 0.11,4.49 ± 0.52
LPGGTTGLQLPSTLPVSGNLLDVY [TFE3],3.24 ± 0.31,3.23 ± 0.17
LPLGIKVYEDETKVVHAVDGTAEN [PALM],5.02 ± 0.17,5.03 ± 0.23
LQLYFWKDREFHELQGDFSVPDVP [VPS39],2.02 ± 0.46,2.17 ± 0.22
LQREKEFKAKEAAALGSRGSCSTE [ATP6V1G1],5.12 ± 0.14,5.1 ± 0.48
LQTLRSFSHTLVSLSLFGCTNIFY [ZER1],2.26 ± 0.35,3.67 ± 1.3
LQVIKALKSSGLCESLTYGLPFIL [M1AP],3.04 ± 0.94,2.81 ± 0.83
LRARNYEYLIRLFQEWEAHRNLSQ [TCF25],2.13 ± 0.38,2.18 ± 0.35
LRGKFKRPPLRRVRMSADAMLKAL [TNNI2],2.25 ± 0.46,2.4 ± 0.14
LRRGHPAGGEENMTETDAFYKREM [CASP6],4.9 ± 0.2,4.43 ± 0.84
LRRRIENGAKELWFFLQSELKKLK [FUT8],2.85 ± 0.43,2.52 ± 0.4
LRVRELQRKVDGIQKAYDELRLQS [CCDC89],3.16 ± 0.13,3.42 ± 0.39
LSDSGAFRRSLHDPDGLVATYISE [APMAP],4.12 ± 0.2,4.02 ± 0.23
LSGVSCFVMFLCLADYLVPILAPR [ARL6IP1],3.5 ± 0.071,3.37 ± 0.44
LSGVSQLLPKSRENYLNRCMDQER [FCHO1],3.78 ± 0.21,3.95 ± 0.14
LSLFVQKLGNLMSLDISGHMILEN [ZER1],3.24 ± 0.06,3.42 ± 0.48
LTEDMYAQDSIELLTTSGIQFKKH [CNOT7],3.93 ± 0.23,4.09 ± 0.32
LTGTESPFDLEQQWQDLMSIMEMQ [NFE2L1],3.95 ± 0.23,3.88 ± 0.47
LTPHIVQYQANKVTHTLTMRQRIS [PPEF2],2.89 ± 0.28,3 ± 0.17
LTQLHRLSLESSPDAPDHTSETSH [PLEKHN1],5.23 ± 0.32,5.22 ± 0.21

Sequence,protein stability index (treatment: DMSO),"protein stability index (treatment: MLN4924 1 uM, 8 h)"
LTTKDYMEMYNVIMTVKEDQFSAL [SLC6A17],2.37 ± 0.39,2.38 ± 0.29
LTVAKCWDPSPRGCFTLPRSEPIR [DVL3],2.43 ± 0.37,2.62 ± 0.23
LVEAVLSGEVLNGAAVVRPPGHHA [HDAC6],2.27 ± 0.2,2.27 ± 0.34
LVGDRDVGKSEILESLQDGAAESP [RAB40A],5.57 ± 0.17,5.48 ± 0.21
LVHHRAAHSNEILIFSVQPKSLVR [KLHDC2],2.45 ± 0.31,2.21 ± 0.24
LVLLRDGRTLIGFLRSIDQFANLV [LSM1],2.23 ± 0.52,2.47 ± 0.47
LVQDLVDSLKFAVLMWLLTYVGAL [RTN1],2.94 ± 0.2,2.85 ± 0.26
LVRGHRRRLLRRLSPSRGVAQCLR [ZSWIM9],3.2 ± 0.23,3.41 ± 0.25
LVTGGELFEDIVAREYYSEADASH [CAMK2A],3.92 ± 0.37,3.91 ± 0.17
LWVEERALLEGEKALWEDKTSLWE [CCDC70],2.6 ± 0.036,3 ± 0.11
LYCSTPTRTAEPAESSVPPVTSIG [SLC35F2],3.98 ± 0.25,4.08 ± 0.2
LYRDVMLETFGHLLSIGPELPKPE [ZNF8],2.26 ± 0.27,2.56 ± 0.46
LYSLAPTMGAVVLSSTLLSFSTAI [MFSD9],3.19 ± 0.47,2.96 ± 0.42
MAKRIGKDLSNTFAKLEKLTILAK [STX5],2.77 ± 0.69,2.77 ± 0.53
MAMVVSTWRDPQDEVPGSQGSQAS [NR2F2],4.05 ± 0.27,4.32 ± 0.25
MDEEKLKQLNCVEISALNGNRINV [DLC1],3.6 ± 0.34,3.67 ± 0.3
MEDGSLDITQSIEDDPLLDAQLLP [TMEM192],5.28 ± 0.24,5.18 ± 0.16
MEEAAVASVVLPARELQEALPEAP [BCL2L13],5.27 ± 0.15,5.51 ± 0.069
MENKAMYLHTVSDCDTSSICEDSF [SCARA5],4.46 ± 0.17,4.49 ± 0.22
MERLRELQRASILDMRRDHEEQLQ [FBF1],4.28 ± 0.28,4.42 ± 0.29
MFPVAPKPQDSSQPSDRLMTEKQQ [CEP70],5.28 ± 0.2,5.24 ± 0.11
MGANTSRKPPVFDENEDVNFDHFE [STK32A],5.11 ± 0.26,5.134 ± 0.042
